Data on 7 molecules can be found in patent US20140370516, “DIAGNOSIS OF TUBERCULOSIS” (CSIR, published 2014).

Data set [1] addresses T1, CFP-10 (monomer) (Mycobacterium tuberculosis, UniProt P9WNK5 P9WNK5:2-100). Kind of data set: ELONA, 150 nM aptamer. Conditions: label: biotin.
The target of data set [2] is T2, CFP-10.ESAT-6 heterodimer (Mycobacterium tuberculosis, UniProt P9WNK5;P9WNK7 P9WNK5:2-100,P9WNK7:2-95). Kind of data set: ELONA, 150 nM aptamer; binding abrogated by anti-ESAT-6 mAb. To be noted: label: biotin. The procedure: (§1) The assay was modified from an ELISA protocols for determination of aptamer-protein interactions and has been termed an ELONA. Unique aptamer clones identified by sequencing were tested for their individual binding characteristic to the CFP-10.ESAT-6 heterodimer using an ELONA. Each ssDNA aptamer was prepared using the exonuclease method as described above with minor modifications, in that all aptamers were prepared with the biotinylated forward primer. For each binding assay, 96 well micro-titre plates (Corning, Adcock Ingram) were coated with the CFP-10.ESAT-6 heterodimer in a 10 mM NaHCO₃ buffer pH 8.5 (Sigma) and left overnight at 4° C. The plates were then washed with 1× phosphate buffered saline containing 0.005% Tween 20 (PBS-T) pH7 (Sigma) and blocked with a 5% fat free milk solution for 1 hour at 4° C. The plates were then washed 3 times with a 1×PBS after which 150 nM biotinylated aptamer was added and incubated for 2 hours at room temperature. This was followed by three wash steps with 1×PBS-T and the addition to HRP-conjugated streptavidin (diluted 1:10000 in 1×PBS-T) and incubated for two hours at 37° C. The plates were then washed four more times with 1×PBS-T, after which a final 3,3′,5,5′-tetramethylbenzidine (TMB) detection substrate (Separations) was added. […] The reaction was stopped with a 2 M sulphuric acid solution (Merck), resulting in a colour change from blue to yellow. The plates were read on the MultiSkan Go plate reader (ThermoScientific, AEC-Amersham) at a wavelength of 450 nm. […] Each aptamer was done in triplicate and the repeats were averaged and the standard deviation calculated. Each aptamer was tested twice in triplicate to ensure accuracy. The aptamers were then compared to the aptamer alone control using a Student t-test statistical analysis to obtain the p value for significance.
The antibody competition binding was done using the ELONA method described above with minor modifications.

Another data set deals with ESAT-6 (monomer) (Mycobacterium tuberculosis, UniProt P9WNK7 P9WNK7:2-95). Kind of data set: ELONA. To be noted: label: biotin. The procedure: as §1, with “For” for “The assay was modified from an ELISA protocols for determination of aptamer-protein interactions and has been termed an ELONA. Unique aptamer clones identified by sequencing were tested for their individual binding characteristic to the CFP-10.ESAT-6 heterodimer using an ELONA. Each ssDNA aptamer was prepared using the exonuclease method as described above with minor modifications, in that all aptamers were prepared with the biotinylated forward primer. For”
(§2) Selected ssDNA aptamers were tested for binding specificity to the ESAT-6 and CFP-10 monomers. The aptamers were tested for binding using ELONA to CFP-10, ESAT-6, CFP-10.ESAT-6 heterodimer, a CFP-10.ESAT-6 related protein in the ESX3 secretion system (EsxGH complex) and a HIV surface glycoprotein (gp120). EsxGH is an ESAT-6 family related protein that is encoded and secreted by the ESX-3 secretion system and gp120 is a HIV glycoprotein which is unrelated to the Mtb antigens.

For data set [3], the target named is T3, EsxGH heterodimer (ESX-3 secretion system) (UniProt O53692;P9WNK3 O53692:2-97,P9WNK3:1-96).
T3 sequence 1: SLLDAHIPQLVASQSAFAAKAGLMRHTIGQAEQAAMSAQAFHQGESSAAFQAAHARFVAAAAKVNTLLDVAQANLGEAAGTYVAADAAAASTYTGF
T3 sequence 2: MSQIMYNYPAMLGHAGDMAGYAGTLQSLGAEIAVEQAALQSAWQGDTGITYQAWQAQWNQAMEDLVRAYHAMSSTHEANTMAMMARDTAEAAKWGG
Kind of data set: ELONA. Conditions: label: biotin. The procedure: as §1, with “For” for “The assay was modified from an ELISA protocols for determination of aptamer-protein interactions and has been termed an ELONA. Unique aptamer clones identified by sequencing were tested for their individual binding characteristic to the CFP-10.ESAT-6 heterodimer using an ELONA. Each ssDNA aptamer was prepared using the exonuclease method as described above with minor modifications, in that all aptamers were prepared with the biotinylated forward primer. For”
as §2

The target of data set [4] is T1, CFP-10 (monomer). Kind of data set: ELONA, 150 nM aptamer; SPR also run, Kd not given. Conditions: label: biotin.
In data set [5] the target is T1, CFP-10 (monomer). Kind of data set: SPR; CFP-10 immobilised on CM5 chip; also bound in ELONA. To be noted: label: biotin; three predicted stem-loops. The procedure: (§3) FIG. 7 illustrates kinetic studies of 5 of the best aptamers. CFP-10 attached to a CM5 chip was used to capture the respective anti-CFP-10.ESAT-6 aptamers. The respective aptamers were injected at different concentrations at a flow rate of 10 μl/min for 5 minutes and allowed to dissociate for 10 minutes;
(§4) To determine the binding affinity of aptamers to the M.tb antigens, all four flow cells on a CM5 chip (BIAcore, Separations Scientific) were activated with EDC:NHS (BIAcore, Separations Scientific). CFP-10 was bound to three of the four flow cells by injecting 50 μl of 50 μg/ml CFP-10 over them. Ethanolamine (BIAcore, Separations Scientific) was then injected over all four flow cells to quench any remaining active sites. Partially bound or unbound protein was removed by a wash with 10 μl of a 10 mM NaOH solution. Different concentrations of the respective aptamers (0 nM, 31 nM, 62 nM, 125 nM, 250 nM, and 500 nM) were randomly injected over all four flow cells at a flow rate of 10 μl/min for 5 minutes. The respective aptamers, were then allowed to dissociate for 10 minutes. […] The evaluation was done using BiaEvaluation Software (BIAcore) to determine the KD values for each flow cell. The average dissociation constant was then determined.

Data set [6] addresses T1, CFP-10 (monomer). Kind of data set: SPR; CFP-10 immobilised on CM5 chip. Conditions: label: biotin. As for the experimental part: as §3, §4
Data set [7] deals with T1, CFP-10 (monomer). Kind of data set: SPR; CFP-10 immobilised on CM5 chip, BIAcore 3000. Conditions: label: biotin; two predicted stem-loops. The procedure: as §3, §4
For data set [8], the target named is T1, CFP-10 (monomer). Kind of data set: ELONA; affinity comparable to 90-mer. Conditions: two predicted stem-loops.
For data set [9], the target named is T2, CFP-10.ESAT-6 heterodimer. Kind of data set: ELONA; slightly higher affinity than 90-mer (P<0.05). To be noted: two predicted stem-loops.

B1: CSIR 2.9 (ssDNA)
DNA: GCCTGTTGTGAGCCTCCTAACTCCGGTCTTCAACATGTCCAATCGAACTTCGGCGGAAATCCTTTACCTGCATGCTTATTCTTGTCTCCC
As for B1, the binding result with CFP-10 (monomer) [1] was “binds”; in [2], “binds”; in the data set with ESAT-6 (monomer), “no binding”; in data set [3] it was “no binding”.

B2: CSIR 2.15 (ssDNA)
DNA: GCCTGTTGTGAGCCTCCTAACTAATGTGGATGCTGCATCGTTAGTATTTCTAGCATGCAATATAGGCATGCATGCTTATTCTTGTCTCCC
For the molecule B2, the binding result was “binds” in the data set with CFP-10 (monomer) [4], “binds” in [2], “no binding” in the data set with ESAT-6 (monomer) and “no binding” in [3].

B3: CSIR 2.11 (ssDNA)
DNA: GCCTGTTGTGAGCCTCCTAACCCCATCTTATACGTATATGGACTCATCTCGACCCCCGATAGGCTTGGTACATGCTTATTCTTGTCTCCC
On to B3, for which the dissociation constant Kd (usually the concentration at which binding is half-saturated) in the data set with CFP-10 (monomer) [5] was 8 nM. The binding result (with ESAT-6 (monomer) (three predicted stem-loops); in data set [3] (three predicted stem-loops)) was “no binding” throughout.

B4: CSIR 2.2 (ssDNA)
DNA: GCCTGTTGTGAGCCTCCTAACCCGTCTAACGAGATTGGGTCTTCATATGGCTCGAAGCGCGCGGTCAGTTCATGCTTATTCTTGTCTCCC
Consider B4, for which the binding result (with ESAT-6 (monomer); in [3]) was “no binding” throughout. In addition, the affinity with CFP-10 (monomer) [6], expressed as Kd, was 21.5 nM.

B5: CSIR 2.19 (ssDNA)
DNA: GCCTGTTGTGAGCCTCCTAACTTCCAATAACGATACTTAAACCTGGTCTTTGCCAGTCAATGATAGCATCATGCTTATTCTTGTCTCCC
For B5, the binding result (with ESAT-6 (monomer) (two predicted stem-loops); in [3] (two predicted stem-loops)) was “no binding” in each case. Further, the Kd with CFP-10 (monomer) [7] is 1.6 nM.

B6: CSIR 2.19 truncated (77-mer) (ssDNA)
DNA: GCCTGTTGTGAGCCTCCTAACTTCCAATAACGATACTTAAACCTGGTCTTTGCCAGTCAATGATAGCATCATGCTTA
modifications: [none (12 nt removed from the 3' end, parent positions 1-77)]
As for B6, the binding result (with CFP-10 (monomer) [8]; in data set [9]) was “binds” each time.

B7: CSIR 2.21 (ssDNA)
DNA: GCCTGTTGTGAGCCTCCTAACACACACGTAGCGCCTTGTTGAAGTATACTCAAAGCATTCTCCACGCGGGCATGCTTATTCTTGTCTCCC
Take B7: the binding result with CFP-10 (monomer) [1] is listed as “binds”; in data set [2], “binds”; with ESAT-6 (monomer) it was “no binding”; in data set [3] it was “no binding”.
